Results published in paper PMC9646914, “Nicking mechanism underlying the DNA phosphorothioate-sensing antiphage defense by SspE” (Nature Communications, 2022).

Columns and labels:
[1] = tested on: SspE (Streptomyces yokosukanensis DSM 40224); assay: MST; conditions: EMSA: 10 mM Tris-HCl pH 8.0 (20 mM in Fig 3 legend), 100 mM NaCl, 0.01 mM EDTA, 5% glycerol, 15 min 30 C, MST: 10 mM Tris-HCl pH 8.0, 100 mM NaCl, 12.5 nM DNA …
[2] = target: T1, SspE (Streptomyces yokosukanensis, UniProt A0A6I8WFL9); assay: malachite green phosphate release (QuantiChrom ATPase/GTPase kit); format: biochemical; conditions: 100 uM GTP, 1 uM protein, alone or with 1 uM 40-bp DNA with or without phosphorothioate; Mg acetate 10 mM, pH 7.9, 28 C
T1 construct: full length, 771 residues (2,313-bp gene); NTD 1-324 GTPase (DGQQR motif 96-100), CTD 332-771 HNH nickase; expressed in E. coli BL21(DE3), Ni-NTA and Superdex 200

[3] = tested on: SspE (Streptomyces yokosukanensis DSM 40224); assay: EMSA; conditions: EMSA: 10 mM Tris-HCl pH 8.0 (20 mM in Fig 3 legend), 100 mM NaCl, 0.01 mM EDTA, 5% glycerol, 15 min 30 C; MST: 10 mM Tris-HCl pH 8.0, 100 mM NaCl, 12.5 nM DNA …
[4] = tested on: SspE K40A (Streptomyces yokosukanensis DSM 40224); assay: EMSA; conditions: EMSA: 10 mM Tris-HCl pH 8.0 (20 mM in Fig 3 legend), 100 mM NaCl, 0.01 mM EDTA, 5% glycerol, 15 min 30 C; MST: 10 mM Tris-HCl pH 8.0, 100 mM NaCl, 12.5 nM DNA …
[5] = tested on: SspE-CTD (Streptomyces yokosukanensis DSM 40224); assay: EMSA; conditions: EMSA: 10 mM Tris-HCl pH 8.0 (20 mM in Fig 3 legend), 100 mM NaCl, 0.01 mM EDTA, 5% glycerol, 15 min 30 C; MST: 10 mM Tris-HCl pH 8.0, 100 mM NaCl, 12.5 nM DNA …

T1 sequence (A0A6I8WFL9 entry or part of it): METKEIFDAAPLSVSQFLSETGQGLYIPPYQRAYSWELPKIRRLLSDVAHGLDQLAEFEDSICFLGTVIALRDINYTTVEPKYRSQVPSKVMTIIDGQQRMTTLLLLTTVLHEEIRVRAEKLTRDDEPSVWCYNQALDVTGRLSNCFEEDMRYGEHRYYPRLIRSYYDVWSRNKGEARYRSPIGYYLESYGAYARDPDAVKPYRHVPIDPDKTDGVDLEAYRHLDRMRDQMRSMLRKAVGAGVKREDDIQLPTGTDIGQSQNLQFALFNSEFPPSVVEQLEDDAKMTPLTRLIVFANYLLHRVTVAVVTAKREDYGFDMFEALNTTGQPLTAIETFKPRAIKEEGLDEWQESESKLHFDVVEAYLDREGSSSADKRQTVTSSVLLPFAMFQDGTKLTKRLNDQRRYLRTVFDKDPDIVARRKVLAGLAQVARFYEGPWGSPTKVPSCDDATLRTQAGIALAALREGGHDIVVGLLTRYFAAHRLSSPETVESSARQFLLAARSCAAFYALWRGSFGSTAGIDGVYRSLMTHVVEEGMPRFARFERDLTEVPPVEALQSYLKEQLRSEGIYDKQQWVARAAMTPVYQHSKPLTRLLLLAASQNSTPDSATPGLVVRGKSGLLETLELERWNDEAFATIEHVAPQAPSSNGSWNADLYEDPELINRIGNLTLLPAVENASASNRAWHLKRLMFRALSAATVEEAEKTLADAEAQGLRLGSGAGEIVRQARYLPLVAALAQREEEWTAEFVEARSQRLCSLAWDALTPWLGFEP

2-kb PT DNA (CpsCA at both termini) showed a Kd ([1]; phosphorothioate C12-C13 of primer #7 and C17-C18 of primer #8) of 8.5 µM.
2-kb non-PT DNA (CCA) showed a Kd [1] of 18.4 µM.
With `Nc1nc2c(ncn2[C@@H]2O[C@H](COP(=O)(O)OP(=O)(O)OP(=O)(O)O)[C@@H](O)[C@H]2O)c(=O)[nH]1` [GTP] the GTPase activity [2] was “The GTP hydrolysis activity of SspE and its mutants was assayed”.
linearized pUC19 gave a Kd [3] of 17.8 µM, a Kd [4] of 22.2 µM and a Kd [5] of 3 µM.
